One assay deals with T1, WDR6 (human, UniProt Q9NNW5 1-1121).
T1 sequence (looked up): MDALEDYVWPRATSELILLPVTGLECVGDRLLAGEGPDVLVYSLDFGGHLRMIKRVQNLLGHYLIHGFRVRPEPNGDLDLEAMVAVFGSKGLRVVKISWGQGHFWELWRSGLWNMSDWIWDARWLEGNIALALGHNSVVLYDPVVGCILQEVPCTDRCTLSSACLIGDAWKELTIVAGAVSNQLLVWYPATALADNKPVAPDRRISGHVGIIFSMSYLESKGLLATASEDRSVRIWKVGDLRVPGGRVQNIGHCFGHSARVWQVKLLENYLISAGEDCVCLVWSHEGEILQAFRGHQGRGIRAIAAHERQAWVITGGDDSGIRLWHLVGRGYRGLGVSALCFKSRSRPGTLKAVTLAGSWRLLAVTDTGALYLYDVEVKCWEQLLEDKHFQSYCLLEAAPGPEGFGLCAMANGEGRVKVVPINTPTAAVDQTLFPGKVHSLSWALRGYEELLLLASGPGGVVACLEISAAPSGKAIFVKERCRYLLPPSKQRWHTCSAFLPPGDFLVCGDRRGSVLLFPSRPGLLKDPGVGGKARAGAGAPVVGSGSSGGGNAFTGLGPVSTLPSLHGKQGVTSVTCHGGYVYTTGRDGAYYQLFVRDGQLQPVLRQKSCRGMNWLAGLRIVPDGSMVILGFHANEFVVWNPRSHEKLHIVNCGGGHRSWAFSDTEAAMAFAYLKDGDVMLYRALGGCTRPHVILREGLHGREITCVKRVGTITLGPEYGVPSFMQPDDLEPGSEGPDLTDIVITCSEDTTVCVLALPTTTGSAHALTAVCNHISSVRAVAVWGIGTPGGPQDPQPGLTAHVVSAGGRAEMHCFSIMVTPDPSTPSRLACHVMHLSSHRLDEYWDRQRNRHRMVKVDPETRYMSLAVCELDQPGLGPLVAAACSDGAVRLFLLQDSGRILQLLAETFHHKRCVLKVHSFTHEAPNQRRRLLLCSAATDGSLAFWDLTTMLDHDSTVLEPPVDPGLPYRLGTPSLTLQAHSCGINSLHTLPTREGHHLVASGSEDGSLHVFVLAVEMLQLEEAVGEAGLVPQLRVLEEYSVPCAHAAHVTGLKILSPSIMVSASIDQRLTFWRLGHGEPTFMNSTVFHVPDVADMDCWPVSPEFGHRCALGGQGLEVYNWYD
The assay can be described thus: IP/MS, LZTR1 wild type-FLAG, U87. A digest of the protocol: (§1)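 Read-out: spectral counts from LC-MS/MS (Orbitrap Fusion) after MaxQuant identification. Variable modifications were Met oxidation, protein N-terminal acetylation and N/Q deamidation.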

In the next assay the target is T2, AMBRA1 (human, UniProt Q9C0C7 1-1298, limits assumed).
T2 sequence (looked up): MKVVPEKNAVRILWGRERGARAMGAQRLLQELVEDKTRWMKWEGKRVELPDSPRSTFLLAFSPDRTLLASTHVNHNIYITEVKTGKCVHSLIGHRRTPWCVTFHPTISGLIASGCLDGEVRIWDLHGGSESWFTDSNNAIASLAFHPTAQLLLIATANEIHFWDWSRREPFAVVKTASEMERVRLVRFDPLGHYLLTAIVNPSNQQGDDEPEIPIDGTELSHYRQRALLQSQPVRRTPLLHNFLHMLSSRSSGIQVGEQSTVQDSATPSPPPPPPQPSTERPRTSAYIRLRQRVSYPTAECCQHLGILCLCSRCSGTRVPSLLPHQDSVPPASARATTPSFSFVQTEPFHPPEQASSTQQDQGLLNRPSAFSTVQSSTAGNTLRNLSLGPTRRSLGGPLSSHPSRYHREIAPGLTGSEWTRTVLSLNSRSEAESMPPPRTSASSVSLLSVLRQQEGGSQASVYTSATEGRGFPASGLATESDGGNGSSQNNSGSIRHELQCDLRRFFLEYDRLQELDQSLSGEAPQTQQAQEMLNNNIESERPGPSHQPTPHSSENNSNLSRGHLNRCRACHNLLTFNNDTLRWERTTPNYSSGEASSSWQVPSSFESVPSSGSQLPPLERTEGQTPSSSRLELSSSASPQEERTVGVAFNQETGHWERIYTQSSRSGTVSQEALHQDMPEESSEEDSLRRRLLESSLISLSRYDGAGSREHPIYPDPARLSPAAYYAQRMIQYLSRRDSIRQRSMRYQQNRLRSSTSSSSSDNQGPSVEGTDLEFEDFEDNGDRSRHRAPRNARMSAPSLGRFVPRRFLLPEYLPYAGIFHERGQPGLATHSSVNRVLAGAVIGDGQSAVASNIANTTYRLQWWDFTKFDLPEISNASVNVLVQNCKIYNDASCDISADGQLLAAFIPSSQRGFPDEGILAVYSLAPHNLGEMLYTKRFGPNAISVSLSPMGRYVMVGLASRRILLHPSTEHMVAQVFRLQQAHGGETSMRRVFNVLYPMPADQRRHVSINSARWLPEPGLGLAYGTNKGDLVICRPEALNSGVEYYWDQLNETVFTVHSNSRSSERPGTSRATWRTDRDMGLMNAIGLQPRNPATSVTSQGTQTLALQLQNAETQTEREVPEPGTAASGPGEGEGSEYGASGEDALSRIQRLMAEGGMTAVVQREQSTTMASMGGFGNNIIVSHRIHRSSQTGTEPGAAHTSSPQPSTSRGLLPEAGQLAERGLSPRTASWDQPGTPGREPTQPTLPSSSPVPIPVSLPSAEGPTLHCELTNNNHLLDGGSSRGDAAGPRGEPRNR
The assay can be described thus: IP/MS, LZTR1 wild type-FLAG, U87. A digest of the protocol: as §1

This is an account of results in patent US20250262210A1 (TRUSTEES OF COLUMBIA UNIVERSITY IN THE CITY OF NEW YORK, published 2025).

B1: LZTR1-FLAG (other, human, UniProt Q8N653 1-840, looked up)
chain: MAGPGSTGGQIGAAALAGGARSKVAPSVDFDHSCSDSVEYLTLNFGPFETVHRWRRLPPCDEFVGARRSKHTVVAYKDAIYVFGGDNGKTMLNDLLRFDVKDCSWCRAFTTGTPPAPRYHHSAVVYGSSMFVFGGYTGDIYSNSNLKNKNDLFEYKFATGQWTEWKIEGRLPVARSAHGATVYSDKLWIFAGYDGNARLNDMWTIGLQDRELTCWEEVAQSGEIPPSCCNFPVAVCRDKMFVFSGQSGAKITNNLFQFEFKDKTWTRIPTEHLLRGSPPPPQRRYGHTMVAFDRHLYVFGGAADNTLPNELHCYDVDFQTWEVVQPSSDSEVGGAEVPERACASEEVPTLTYEERVGFKKSRDVFGLDFGTTSAKQPTQPASELPSGRLFHAAAVISDAMYIFGGTVDNNIRSGEMYRFQFSCYPKCTLHEDYGRLWESRQFCDVEFVLGEKEECVQGHVAIVTARSRWLRRKITQARERLAQKLEQEAAPVPREAPGVAAGGARPPLLHVAIREAEARPFEVLMQFLYTDKIKYPRKGHVEDVLLIMDVYKLALSFQLCRLEQLCRQYIEASVDLQNVLVVCESAARLQLSQLKEHCLNFVVKESHFNQVIMMKEFERLSSPLIVEIVRRKQQPPPRTPLDQPVDIGTSLIQDMKAYLEGAGAEFCDITLLLDGHPRPAHKAILAARSSYFEAMFRSFMPEDGQVNISIGEMVPSRQAFESMLRYIYYGEVNMPPEDSLYLFAAPYYYGFYNNRLQAYCKQNLEMNVTVQNVLQILEAADKTQALDMKRHCLHIIVHQFTKVSKLPTLRSLSQQLLLDIIDSLASHISDKQCAELGADI
notes: Expressed in HEK 293T, HeLa or U87 cells; used as cell lysate; also called LZTR1 wild type-FLAG; LZTR1 WT; not shown: FLAG tag at the C-terminus
Take B1: the binding result with WDR6 and with AMBRA1 was “binds” in each case.
